From PMC12102759

B1: NEK9 peptide 736-751 (Serine/threonine-protein kinase Nek9), 16-mer library wild type / NSP9 (ORF1ab Nsp9, residues 4141-4253) (parent)
chain 1: NSSGLSIGTVFQSSSP
chain 2: NNELSPVALRQMSCAAGTTQTACTDDNALAYYNTTKGGRFVLALLSDLQDLKWARFPKSDGTGTIYTELEPPCRFVTDTPKGPKVKYLYFIKGLNNLNRGMVLGSLAATVRLQ
B2: AZIN2 peptide 1-16 (Antizyme inhibitor 2), 16-mer library wild type / NSP3 ADRP (ORF1ab Nsp3b ADRP, residues 1023-1192) (parent)
chain 1: MAGYLSESDFVMVEEG
chain 2: not shown
B3: NOTCH4 peptide 1604-1619 (Neurogenic locus notch homolog protein 4), 16-mer library wild type / NSP9 (ORF1ab Nsp9, residues 4141-4253) (parent)
chain 1: TFQGAWLGAPEPWEPL
chain 2: B1 chain 2
B4: NYNRIN peptide 1032-1047 (Protein NYNRIN), 16-mer library wild type / NSP3 UBl1 (ORF1ab Nsp3a Ub1, residues 819-925) (parent)
chain 1: PSLSEEILRALSLHDP
chain 2: APTKVTFGDDTVIEVQGYKSVNITFELDERIDKVLNEKCSAYTVELGTEVNEFACVVADAVIKTLQPVSELLTPLGIDLDEWSMATYYLFDESGEFKLASHMYCSFY
B5: NOTCH4 peptide 1606-1621 (Neurogenic locus notch homolog protein 4), 16-mer library wild type / NSP9 (ORF1ab Nsp9, residues 4141-4253) (parent)
chain 1: QGAWLGAPEPWEPLLD
chain 2: B1 chain 2

Variants of: B1
Settings: with NSP9 (ORF1ab Nsp9, residues 4141-4253); bait immobilised on MaxiSorp plates (10 µg), library pre-cleared on GST, 2 h binding at 4 °C, five washes; one round per day, days 1-4; value from days 2 and 3; keep out of graded; scale: average fractional NGS count over selection days 2 and 3

Point of comparison: chain 1 S14E, screen value 0. Against it:
- chain 1 S14F — higher, 0.000194
- chain 1 S14T — the same, 0
- chain 1 S14N — higher, 3.83e-05
- chain 1 S2Q — higher, 2.69e-05
- chain 1 S2H — the same, 0
- chain 1 S2P — higher, 0.00012
- chain 1 S2G — higher, 2.56e-05

Variants of: B2
Settings: with NSP3 ADRP (ORF1ab Nsp3b ADRP, residues 1023-1192); bait immobilised on MaxiSorp plates (10 µg), library pre-cleared on GST, 2 h binding at 4 °C, five washes; one round per day, days 1-4; value from days 2 and 3; keep out of graded; scale: average fractional NGS count over selection days 2 and 3

Point of comparison: chain 1 E14G, screen value 5.95e-05. Against it:
- chain 1 E15A — lower, 1.82e-05
- chain 1 A2M — lower, 0
- chain 1 A2G — lower, 0
- chain 1 A2H — lower, 0
- chain 1 E7S — lower, 0
- chain 1 E7T — lower, 0
- chain 1 E7A — lower, 0
- chain 1 E14H — lower, 3.26e-05
- chain 1 E14A — lower, 3.37e-05
- chain 1 E14T — lower, 1.06e-05
- chain 1 E14V — lower, 1.13e-05
- chain 1 D9I — lower, 2.23e-05
- chain 1 D9A — lower, 1.5e-05
- chain 1 D9H — lower, 2.63e-05
- chain 1 D9T — lower, 2.66e-05

Variants of: B3
Settings: with NSP9 (ORF1ab Nsp9, residues 4141-4253); bait immobilised on MaxiSorp plates (10 µg), library pre-cleared on GST, 2 h binding at 4 °C, five washes; one round per day, days 1-4; value from days 2 and 3; keep out of graded; scale: average fractional NGS count over selection days 2 and 3

Point of comparison: chain 1 P12H, screen value 9.54e-05. Against it:
- chain 1 A9M — lower, 0
- chain 1 A9W — lower, 4.99e-05
- chain 1 A9P — lower, 0
- chain 1 E14F — lower, 3.92e-05
- chain 1 E14Q — lower, 0
- chain 1 E14H — lower, 0
- chain 1 E14L — lower, 7.93e-05
- chain 1 E14V — higher, 0.000155
- chain 1 E14G — lower, 0
- chain 1 L7M — lower, 0
- chain 1 L7I — lower, 0
- chain 1 L7D — lower, 0
- chain 1 Q3E — lower, 2.09e-05
- chain 1 Q3V — lower, 0
- chain 1 Q3L — lower, 0
- chain 1 G8E — lower, 0
- chain 1 G8V — lower, 0
- chain 1 G8M — lower, 0
- chain 1 G8K — lower, 0
- chain 1 G8R — lower, 0
- chain 1 L16G — lower, 0
- chain 1 L16T — lower, 0
- chain 1 L16V — lower, 0
- chain 1 W13Q — lower, 0
- chain 1 W13S — lower, 2.43e-05
- chain 1 W13I — lower, 3.37e-05
- chain 1 W13M — lower, 0
- chain 1 W13T — lower, 4.47e-05
- chain 1 W13F — lower, 0
- chain 1 F2D — lower, 6.3e-05
- chain 1 F2P — lower, 6.51e-05
- chain 1 F2W — lower, 0
- chain 1 F2G — lower, 5.47e-05
- chain 1 F2I — lower, 0
- chain 1 F2L — lower, 0
- chain 1 F2V — lower, 0
- chain 1 F2E — lower, 3.22e-05
- chain 1 F2A — higher, 0.000265
- chain 1 P10E — lower, 4.5e-05
- chain 1 P10D — lower, 0
- chain 1 P10W — higher, 0.00035
- chain 1 P10G — lower, 0
- chain 1 P10I — lower, 0
- chain 1 P10A — lower, 0
- chain 1 P10Q — lower, 0
- chain 1 P10L — lower, 0
- chain 1 P15Y — lower, 0
- chain 1 P15S — lower, 0
- chain 1 A5T — lower, 0
- chain 1 A5F — lower, 4.11e-05
- chain 1 A5E — lower, 0
- chain 1 A5L — lower, 5.68e-05
- chain 1 A5K — lower, 0
- chain 1 A5G — lower, 0
- chain 1 A5S — lower, 0
- chain 1 A5D — lower, 0
- chain 1 A5V — higher, 0.000292
- chain 1 E11L — lower, 0
- chain 1 E11N — lower, 0
- chain 1 E11D — lower, 0
- chain 1 E11Y — lower, 0
- chain 1 E11S — lower, 0
- chain 1 E11H — lower, 0
- chain 1 W6N — lower, 0
- chain 1 W6I — lower, 0
- chain 1 G4L — lower, 0
- chain 1 G4P — lower, 0
- chain 1 G4D — lower, 0
- chain 1 G4V — lower, 0
- chain 1 G4R — lower, 0
- chain 1 G4Y — lower, 0
- chain 1 P12W — lower, 0
- chain 1 P12A — lower, 3.02e-05
- chain 1 P12F — lower, 1.76e-05
- chain 1 P12V — higher, 0.000373
- chain 1 P12Q — lower, 3.5e-05
- chain 1 P12R — lower, 8.09e-05
- chain 1 P12T — lower, 0
- chain 1 P12Y — lower, 2.09e-05
- chain 1 P12K — lower, 8.35e-05

Variants of: B4
Settings: with NSP3 UBl1 (ORF1ab Nsp3a Ub1, residues 819-925); bait immobilised on MaxiSorp plates (10 µg), library pre-cleared on GST, 2 h binding at 4 °C, five washes; one round per day, days 1-4; value from days 2 and 3; keep out of graded; scale: average fractional NGS count over selection days 2 and 3

Point of comparison: chain 1 D15K, screen value 0. Against it:
- chain 1 L13P — the same, 0
- chain 1 H14N — the same, 0
- chain 1 H14F — higher, 7.34e-06
- chain 1 L3A — the same, 0
- chain 1 I7T — the same, 0
- chain 1 I7D — the same, 0
- chain 1 S2R — the same, 0
- chain 1 L8H — the same, 0
- chain 1 E5M — the same, 0
- chain 1 E5H — the same, 0
- chain 1 L11H — the same, 0
- chain 1 A10M — the same, 0
- chain 1 E6Q — higher, 2.97e-05
- chain 1 D15G — the same, 0
- chain 1 D15E — the same, 0

Variants of: B5
Settings: with NSP9 (ORF1ab Nsp9, residues 4141-4253); bait immobilised on MaxiSorp plates (10 µg), library pre-cleared on GST, 2 h binding at 4 °C, five washes; one round per day, days 1-4; value from days 2 and 3; keep out of graded; scale: average fractional NGS count over selection days 2 and 3

Point of comparison: chain 1 G2R, screen value 1.21e-05. Against it:
- chain 1 W4M — lower, 0
- chain 1 W4I — lower, 0
- chain 1 W4F — higher, 7.26e-05
- chain 1 W4Q — lower, 0
- chain 1 W4T — lower, 0
- chain 1 W4H — lower, 0
- chain 1 Q1V — higher, 3.52e-05
- chain 1 Q1G — higher, 5.8e-05
- chain 1 Q1S — higher, 7.35e-05
- chain 1 G6R — lower, 0
- chain 1 G6Y — lower, 0
- chain 1 G6H — lower, 0
- chain 1 G6S — lower, 0
- chain 1 G6W — lower, 0
- chain 1 G6N — lower, 0
- chain 1 G6F — lower, 0
- chain 1 G6L — lower, 0
- chain 1 G6Q — lower, 0
- chain 1 G6E — higher, 6.33e-05
- chain 1 W11R — higher, 3.62e-05
- chain 1 W11K — higher, 3.16e-05
- chain 1 E9H — higher, 4.98e-05
- chain 1 E9R — higher, 5.73e-05
- chain 1 E12R — higher, 8.31e-05
- chain 1 L5Y — lower, 0
- chain 1 L5P — higher, 3.64e-05
- chain 1 L5M — lower, 0
- chain 1 L5H — lower, 0
- chain 1 L5V — higher, 3.16e-05
- chain 1 L5K — lower, 0
- chain 1 L14D — higher, 2.68e-05
- chain 1 L14N — lower, 1.14e-05
- chain 1 L14E — higher, 4.45e-05
- chain 1 A3E — higher, 2.97e-05
- chain 1 A3G — lower, 0
- chain 1 A3H — higher, 3.7e-05
- chain 1 G2A — lower, 0
- chain 1 G2T — lower, 0
- chain 1 G2Y — lower, 0
- chain 1 G2L — lower, 0
- chain 1 G2W — lower, 0
- chain 1 G2H — lower, 0
- chain 1 P8K — lower, 0
- chain 1 L15W — higher, 5.05e-05
- chain 1 L15G — higher, 6.9e-05
